Measurements taken from patent US20170015742A1 (published 2017).

Columns and labels:
Test in all cases: cell-based or functional assay
[1] = target: recombinant human PDGF-BB (human, UniProt P01127 82-190)
Target sequence in this assay (P01127 82-190 limits assumed): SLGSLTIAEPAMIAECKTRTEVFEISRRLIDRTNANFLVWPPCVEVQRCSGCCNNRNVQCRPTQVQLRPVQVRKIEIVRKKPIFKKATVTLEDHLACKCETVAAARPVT

[2] = target: recombinant human PDGF-BB (human, UniProt P01127 82-190); remark: listed apart in the source
Target sequence in this assay (P01127 82-190 limits assumed): as above

[3] = target: recombinant human VEGF165 (human, UniProt P15692 207-395)
recombinant human VEGF165, sequence (P15692 other isoform, or with tags, fused parts or gaps limits assumed): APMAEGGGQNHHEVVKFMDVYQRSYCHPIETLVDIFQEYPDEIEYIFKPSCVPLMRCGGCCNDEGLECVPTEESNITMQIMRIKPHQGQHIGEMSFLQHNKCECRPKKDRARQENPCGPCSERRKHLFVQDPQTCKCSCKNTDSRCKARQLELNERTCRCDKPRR

| Binder | hPDGF-BB IC50 (nM), hPDGF-BB-induced NIH-3T3 cell proliferation [1] | Potency IC50 (nM) NIH-3T3 hPDGF-BB [2] | Potency IC50 (nM) HMVEC-d hVEGF165 [3] |
| --- | --- | --- | --- |
| hBDI-9E8.1 (antibody, V domains shown) VH: EVTLRESGPALVKPTQTLTLTCTFSGFSLSTYGMGVGWIRQPPGKALEWLANIWWDDDKYYNPSLKNRLTISKDTSKNQVVLTMTNMDPVDTATYYCARIESIGTTYSFDYWGQGTMVTVSS VL: NFMLTQPHSVSESPGKTVTISCERSSGDIGDSYVSWYQQRPGSSPTTVIYADDQRPSGVPDRFSGSIDSSSNSASLTISGLKTEDEADYYCQSYDINIDIVFGGGTKLTVL | > 5 nM |  |  |
| hBDI-9E8.2 (antibody, V domains shown) VH: EVTLRESGPALVKPTQTLTLTCTFSGFSLSTYGMGVGWIRQPPGKALEWLANIWWDDDKYYNPSLKNRLTISKDTSKNQVVLTMTNMDPVDTATYYCARIESIGTTYSFDYWGQGTMVTVSS VL: NFMLTQPHSVSESPGKTVTISCERSSGDIGDSYVSWYQQRPGSPPTNVIYADDQRPSGVPDRFSGSIDSSSNSASLTISGLKTEDEADYFCQSYDINIDIVFGGGTKLTVL | > 5 nM |  |  |
| CL-33675_GS_1B10.1 (bispecific antibody, human IgG1, kappa, L234A L235A) heavy: EVTLRESGPALVKPTQTLTLTCTFSGFSLSTYGMGVGWIRQPPGKALEWLANIWWDDDKYYNPSLKNRLTISKDTSKNQVVLTMTNMDPVDTATYYCARIESSGPKYSFDYWGQGTMVTVSSGGGGSGGGGSEVQLVESGGGLVQPGGSLRLSCAASGFSFSKYDMAWFRQAPGKGLEWVASITTSGVGTYYRDSVKGRFTVSRDNAKSTLYLQMNSLRAEDTAVYYCARGYGAMDAWGQGTTVTVSSASTKGPSVFPLAPSSKSTSGGTAALGCLVKDYFPEPVTVSWNSGALTSGVHTFPAVLQSSGLYSLSSVVTVPSSSLGTQTYICNVNHKPSNTKVDKKVEPKSCDKTHTCPPCPAPEAAGGPSVFLFPPKPKDTLMISRTPEVTCVVVDVSHEDPEVKFNWYVDGVEVHNAKTKPREEQYNSTYRVVSVLTVLHQDWLNGKEYKCKVSNKALPAPIEKTISKAKGQPREPQVYTLPPSREEMTKNQVSLTCLVKGFYPSDIAVEWESNGQPENNYKTTPPVLDSDGSFFLYSKLTVDKSRWQQGNVFSCSVMHEALHNAYTQKSLSLSPGK light: EIVLTQSPGTLSLSPGERATLSCRASSGSIWYSFVSWYQQKPGQAPRLLIYADDQRASGIPDRFSGSGSGTDFTLTISRLEPEDFAVYYCQSYGINIDVVFGGGTKVEIKGGSGGGGSGGDIQMTQSPSSLSASVGDRVTITCKASQDIDDYLSWYQQKPGKSPKLVIYAATRLADGVPSRFSGSGSGTDYTLTISSLQPEDFATYYCLQSSSTPWTFGGGTKVEIKRTVAAPSVFIFPPSDEQLKSGTASVVCLLNNFYPREAKVQWKVDNALQSGNSQESVTEQDSKDSTYSLSSTLTLSKADYEKHKVYACEVTHQGLSSPVTKSFNRGEC |  | 0.11 nM | 0.265 nM |
| 3E2.1_GS_4G8.5 (bispecific antibody, human IgG1, kappa, L234A L235A) heavy: EVQLVQSGAEVKKPGSSVKVSCKASGYTFTESYMYWVKQAPGQGLELIGRIDPEDGSTDYVEKFKNKATLTADKSTSTAYMELSSLRSEDTAVYFCARFGARSYFYPMDAWGQGTTVTVSSGGGGSGGGGSEIQLVQSGSELKKPGASVKVSCKASGYTFTNYGMYWVRQAPGQGLEYMGWINTETGKPTYADDFKGRFVFSLDTSVSTAYLQISSLKAEDTAVYFCARTNYYYRSYIFYFDYWGQGTMVTVSSASTKGPSVFPLAPSSKSTSGGTAALGCLVKDYFPEPVTVSWNSGALTSGVHTFPAVLQSSGLYSLSSVVTVPSSSLGTQTYICNVNHKPSNTKVDKKVEPKSCDKTHTCPPCPAPEAAGGPSVFLFPPKPKDTLMISRTPEVTCVVVDVSHEDPEVKFNWYVDGVEVHNAKTKPREEQYNSTYRVVSVLTVLHQDWLNGKEYKCKVSNKALPAPIEKTISKAKGQPREPQVYTLPPSREEMTKNQVSLTCLVKGFYPSDIAVEWESNGQPENNYKTTPPVLDSDGSFFLYSKLTVDKSRWQQGNVFSCSVMHEALHNAYTQKSLSLSPGK light: ETVLTQSPATLSLSPGERATLSCRASESVSTLMHWYQQKPGQQPRLLIYGASNLESGVPARFSGSGSGTDFTLTISSLEPEDFAVYFCQQSWNDPWTFGGGTKVEIKGGSGGGGSGGATQLTQSPSLSASVGDRVTITCRASESVSTHMHWYQQKPGKQPKLLIYGASNLESGVPSRFSGSGSGTDFTLTISSLQPEDFATYFCQQSWNDPFTFGQGTKLEIKRTVAAPSVFIFPPSDEQLKSGTASVVCLLNNFYPREAKVQWKVDNALQSGNSQESVTEQDSKDSTYSLSSTLTLSKADYEKHKVYACEVTHQGLSSPVTKSFNRGEC |  | 0.38 nM | 0.743 nM |
